Source: patent US20240358855A1 (UNIVERSITY OF UTAH RESEARCH FOUNDATION, published 2024)

T1: CRP (UniProt P02741 19-224)
T1 construct: Bought protein coated on plates; also called C reactive protein
T1 sequence (looked up): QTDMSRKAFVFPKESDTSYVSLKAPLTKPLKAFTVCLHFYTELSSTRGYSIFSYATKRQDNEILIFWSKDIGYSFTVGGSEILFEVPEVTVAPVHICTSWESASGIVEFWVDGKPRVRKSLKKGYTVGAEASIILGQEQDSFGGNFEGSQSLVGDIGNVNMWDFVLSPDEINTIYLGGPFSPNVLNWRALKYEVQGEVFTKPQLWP


How the values were obtained:
[1] = molecular target: T1, CRP; experiment: plate binding ELISA on coated CRP, HEK293 supernatant; fold vs (-) control pCTM395 supernatant
[2] = molecular target: T2, C3b protein (UniProt P01024 23-667; P01024 749-1663, limits assumed); experiment: plate binding ELISA on coated C3b, HEK293 supernatant 25 ng/mL; fold vs (-) control pCTM395 supernatant
T2 construct: domain: C3b; Bought protein coated on plates
Protocol: The C3b binding assay uses C3b protein (Complement Technology, Cat. #A114) diluted with 50 mM carbonate coating buffer (pH 9.6) at a final concentration of 50 μM. A total of 100 μl of C3b/carbonate solution was added to each well of a black MaxiSorp 96-wellmicroplate, covered and incubated overnight at 4° C. Blank control wells were incubated with carbonate coating buffer containing no C3b protein. Wells were washed 3 times with 300 μl PBST then blocked for 1 hour with reagent dilution buffer (1% BSA in PBS). Wells were washed again 3 times with 300 μl PBST. […] The plate was washed as above then incubated for 1 hour with anti-CFH/CFHT biotinylated aCTM87b antibody (OX-24, AbCam, Cat. #ab112197) at 1:1000 dilution. The plates were washed as above, then incubated for 1 hour with high sensitivity Streptavidin-HRP (Pierce Cat. #21130) at 1:10,000, washed as above then incubated for 5 minutes with SuperSignal ELISA Pico Chemiluminescent Substrate (Thermo Scientific, Cat. #37069) before detection using the BioTek Synergy4 plate reader.
For C3b assays, 25 ng/mL of CFHT protein-containing supernatant was added to plates coated with C3b.

[3] = molecular target: T2, C3b protein; experiment: plate binding ELISA on coated C3b; fold vs (-) control pCTM395 supernatant
[4] = molecular target: T1, CRP; experiment: plate binding ELISA on coated CRP; fold vs (-) control pCTM395 supernatant
[5] = molecular target: T3, C3d ligand (UniProt P01024 1002-1303, limits assumed); experiment: plate binding assay on C3d, purified protein; fold vs CFHT-I62
T3 construct: domain: C3d

[6] = molecular target: C3 convertase, C3bBb (UniProt P01024 23-1663; P00751 260-764, limits assumed); experiment: cell-based or functional assay
[7] = molecular target: T1, CRP; experiment: plate binding ELISA on coated CRP, purified protein; fold vs CFHT-I62
[8] = molecular target: T2, C3b protein; experiment: plate binding ELISA on coated C3b, purified protein; fold vs CFHT-I62
Protocol: The C3b binding assay uses C3b protein (Complement Technology, Cat. #A114) diluted with 50 mM carbonate coating buffer (pH 9.6) at a final concentration of 50 μM. A total of 100 μl of C3b/carbonate solution was added to each well of a black MaxiSorp 96-wellmicroplate, covered and incubated overnight at 4° C. Blank control wells were incubated with carbonate coating buffer containing no C3b protein. Wells were washed 3 times with 300 μl PBST then blocked for 1 hour with reagent dilution buffer (1% BSA in PBS). Wells were washed again 3 times with 300 μl PBST. Dilutions of recombinant protective CFH, CFHT, oCFHT or supernatant from transiently transfected or transduced Cos-7 cells were prepared in reagent dilution buffer, added to wells in triplicate and incubated for 1 hour at room temperature. The plate was washed as above then incubated for 1 hour with anti-CFH/CFHT biotinylated aCTM87b antibody (OX-24, AbCam, Cat. #ab112197) at 1:1000 dilution. The plates were washed as above, then incubated for 1 hour with high sensitivity Streptavidin-HRP (Pierce Cat. #21130) at 1:10,000, washed as above then incubated for 5 minutes with SuperSignal ELISA Pico Chemiluminescent Substrate (Thermo Scientific, Cat. #37069) before detection using the BioTek Synergy4 plate reader. […]

T2 sequence (P01024 23-667 limits assumed, chain 1 of 2): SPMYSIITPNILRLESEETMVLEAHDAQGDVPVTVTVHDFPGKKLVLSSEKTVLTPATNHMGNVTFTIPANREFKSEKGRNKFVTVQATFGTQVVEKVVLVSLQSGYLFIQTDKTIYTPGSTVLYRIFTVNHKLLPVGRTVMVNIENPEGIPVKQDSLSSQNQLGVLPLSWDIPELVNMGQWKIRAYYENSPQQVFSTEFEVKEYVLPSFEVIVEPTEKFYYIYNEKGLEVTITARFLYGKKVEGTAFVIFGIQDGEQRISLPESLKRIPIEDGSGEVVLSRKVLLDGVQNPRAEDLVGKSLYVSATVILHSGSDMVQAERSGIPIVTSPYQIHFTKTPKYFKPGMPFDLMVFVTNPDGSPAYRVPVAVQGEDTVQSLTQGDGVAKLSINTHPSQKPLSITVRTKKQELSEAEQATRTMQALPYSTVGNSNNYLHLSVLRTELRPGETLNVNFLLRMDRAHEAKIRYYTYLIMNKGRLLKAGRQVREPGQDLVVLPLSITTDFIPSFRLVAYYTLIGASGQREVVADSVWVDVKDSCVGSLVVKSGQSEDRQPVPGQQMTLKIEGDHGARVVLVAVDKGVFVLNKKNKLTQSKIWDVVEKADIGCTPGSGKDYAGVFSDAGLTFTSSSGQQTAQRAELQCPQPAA
T2 sequence (P01024 749-1663 limits assumed, chain 2 of 2): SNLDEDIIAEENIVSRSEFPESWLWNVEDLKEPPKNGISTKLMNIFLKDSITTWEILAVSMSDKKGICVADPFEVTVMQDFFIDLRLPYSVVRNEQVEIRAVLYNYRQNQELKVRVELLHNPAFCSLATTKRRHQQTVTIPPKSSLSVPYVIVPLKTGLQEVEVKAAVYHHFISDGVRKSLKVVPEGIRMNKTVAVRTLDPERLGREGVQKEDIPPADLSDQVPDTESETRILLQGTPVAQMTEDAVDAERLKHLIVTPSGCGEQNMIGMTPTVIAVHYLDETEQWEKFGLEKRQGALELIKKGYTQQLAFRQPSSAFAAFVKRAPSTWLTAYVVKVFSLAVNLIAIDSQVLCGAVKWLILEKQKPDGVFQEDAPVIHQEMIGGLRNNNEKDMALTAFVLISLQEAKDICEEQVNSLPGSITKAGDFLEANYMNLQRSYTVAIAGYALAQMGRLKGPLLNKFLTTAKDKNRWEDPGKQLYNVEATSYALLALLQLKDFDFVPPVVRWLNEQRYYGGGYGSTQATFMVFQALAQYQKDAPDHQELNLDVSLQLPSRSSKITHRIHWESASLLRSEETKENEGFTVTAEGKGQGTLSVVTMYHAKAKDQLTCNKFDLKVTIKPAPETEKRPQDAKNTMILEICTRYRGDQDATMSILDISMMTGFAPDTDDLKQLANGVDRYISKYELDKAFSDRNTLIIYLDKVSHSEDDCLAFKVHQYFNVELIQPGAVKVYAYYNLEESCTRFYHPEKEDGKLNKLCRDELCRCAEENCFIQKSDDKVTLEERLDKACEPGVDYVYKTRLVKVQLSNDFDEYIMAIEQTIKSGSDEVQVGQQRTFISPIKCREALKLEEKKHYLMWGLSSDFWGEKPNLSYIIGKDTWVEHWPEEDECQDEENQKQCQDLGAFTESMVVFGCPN
Chain of C3 convertase, C3bBb (P01024 23-1663 limits assumed, chain 1 of 2): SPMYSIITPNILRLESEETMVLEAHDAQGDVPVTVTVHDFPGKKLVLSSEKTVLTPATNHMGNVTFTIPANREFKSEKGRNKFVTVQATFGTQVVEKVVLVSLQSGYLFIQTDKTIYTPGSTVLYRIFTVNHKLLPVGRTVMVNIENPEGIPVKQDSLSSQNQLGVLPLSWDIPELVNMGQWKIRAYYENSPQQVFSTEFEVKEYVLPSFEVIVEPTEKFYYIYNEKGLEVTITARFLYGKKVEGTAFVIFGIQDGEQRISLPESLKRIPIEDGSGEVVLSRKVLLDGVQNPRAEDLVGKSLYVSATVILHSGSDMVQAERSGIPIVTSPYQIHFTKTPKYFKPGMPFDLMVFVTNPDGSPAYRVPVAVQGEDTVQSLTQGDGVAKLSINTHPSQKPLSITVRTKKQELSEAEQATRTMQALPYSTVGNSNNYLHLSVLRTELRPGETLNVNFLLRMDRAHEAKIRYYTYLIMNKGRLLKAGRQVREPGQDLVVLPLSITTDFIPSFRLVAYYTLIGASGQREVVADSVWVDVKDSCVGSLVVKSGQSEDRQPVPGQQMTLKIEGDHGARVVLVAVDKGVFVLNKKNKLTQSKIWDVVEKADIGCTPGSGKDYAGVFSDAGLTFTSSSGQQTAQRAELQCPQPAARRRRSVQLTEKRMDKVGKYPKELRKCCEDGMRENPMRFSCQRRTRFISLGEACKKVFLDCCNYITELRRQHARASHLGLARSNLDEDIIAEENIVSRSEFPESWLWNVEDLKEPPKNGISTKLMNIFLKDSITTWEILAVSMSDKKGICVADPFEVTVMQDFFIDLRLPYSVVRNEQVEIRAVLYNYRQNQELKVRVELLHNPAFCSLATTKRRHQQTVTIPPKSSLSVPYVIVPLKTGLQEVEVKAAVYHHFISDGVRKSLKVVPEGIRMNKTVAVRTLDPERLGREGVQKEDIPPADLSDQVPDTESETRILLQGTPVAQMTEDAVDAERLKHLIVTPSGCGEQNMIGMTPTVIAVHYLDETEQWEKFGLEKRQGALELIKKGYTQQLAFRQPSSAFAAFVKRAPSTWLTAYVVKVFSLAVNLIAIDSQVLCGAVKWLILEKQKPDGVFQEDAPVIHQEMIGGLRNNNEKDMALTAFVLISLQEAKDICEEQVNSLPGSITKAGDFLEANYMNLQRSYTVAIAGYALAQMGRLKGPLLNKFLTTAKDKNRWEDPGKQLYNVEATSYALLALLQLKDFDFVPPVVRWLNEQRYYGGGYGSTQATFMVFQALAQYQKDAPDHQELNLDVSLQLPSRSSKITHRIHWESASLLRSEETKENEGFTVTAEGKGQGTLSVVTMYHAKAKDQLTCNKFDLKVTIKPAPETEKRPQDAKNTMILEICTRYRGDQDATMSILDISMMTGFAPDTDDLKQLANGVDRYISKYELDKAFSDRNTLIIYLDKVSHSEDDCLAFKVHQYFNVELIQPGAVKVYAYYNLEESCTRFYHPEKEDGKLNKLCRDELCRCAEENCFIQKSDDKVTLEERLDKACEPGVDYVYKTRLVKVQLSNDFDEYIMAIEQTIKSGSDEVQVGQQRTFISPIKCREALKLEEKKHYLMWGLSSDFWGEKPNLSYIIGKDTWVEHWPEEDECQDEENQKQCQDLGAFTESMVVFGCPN
Chain of C3 convertase, C3bBb (P00751 260-764 limits assumed, chain 2 of 2): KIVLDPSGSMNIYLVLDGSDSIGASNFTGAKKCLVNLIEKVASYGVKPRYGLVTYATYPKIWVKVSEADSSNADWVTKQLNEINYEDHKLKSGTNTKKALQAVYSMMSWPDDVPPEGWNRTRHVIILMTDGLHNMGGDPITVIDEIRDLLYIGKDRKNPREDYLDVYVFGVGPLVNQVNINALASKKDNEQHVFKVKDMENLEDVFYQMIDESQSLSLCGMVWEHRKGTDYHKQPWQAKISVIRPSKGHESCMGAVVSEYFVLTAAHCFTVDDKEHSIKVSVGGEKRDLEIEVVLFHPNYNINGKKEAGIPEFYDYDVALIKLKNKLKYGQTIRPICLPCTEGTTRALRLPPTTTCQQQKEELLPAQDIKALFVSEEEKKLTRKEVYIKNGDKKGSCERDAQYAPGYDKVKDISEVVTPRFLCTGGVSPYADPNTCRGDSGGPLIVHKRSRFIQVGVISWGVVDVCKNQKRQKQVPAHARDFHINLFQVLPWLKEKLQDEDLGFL
T3 sequence (P01024 1002-1303 limits assumed): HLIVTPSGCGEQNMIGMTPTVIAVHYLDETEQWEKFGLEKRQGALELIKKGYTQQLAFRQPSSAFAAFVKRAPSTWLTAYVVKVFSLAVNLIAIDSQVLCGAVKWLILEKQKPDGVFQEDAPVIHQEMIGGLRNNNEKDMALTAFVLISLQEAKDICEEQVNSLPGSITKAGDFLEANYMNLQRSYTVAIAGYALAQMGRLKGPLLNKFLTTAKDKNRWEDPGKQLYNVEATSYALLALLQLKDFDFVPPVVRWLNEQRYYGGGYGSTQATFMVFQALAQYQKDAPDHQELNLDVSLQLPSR

| Binder | Fold Activity at Highest Dose (Relative to Control) [1] [fold] | Fold Activity at Highest Dose (Relative to Control) [2] [fold] | Fold Activity at Highest Dose (Relative to Control) [3] [fold] | Fold Activity at Highest Dose (Relative to Control) [4] [fold] | Fold Activity (Compared to CFHT-I62) [5] [fold] | IC50, decay acceleration activity (DAA) assay [6] [nM] | fold less active than unmodified CFHT, DAA assay [6] [fold] | Fold Activity (Compared to CFHT-I62) [7] [fold] | Fold Activity (Compared to CFHT-I62) [8] [fold] |
| --- | --- | --- | --- | --- | --- | --- | --- | --- | --- |
| CFHT.0 (pCTM297) (other, also called unmodified CFHT; protective CFHT) EDCNELPPRRNTEILTGSWSDQTYPEGTQAIYKCRPGYRSLGNIIMVCRKGEWVALNPLRKCQKRPCGHPGDTPFGTFTLTGGNVFEYGVKAVYTCNEGYQLLGEINYRECDTDGWTNDIPICEVVKCLPVTAPENGKIVSSAMEPDREYHFGQAVRFVCNSGYKIEGDEEMHCSDDGFWSKEKPKCVEISCKSPDVINGSPISQKIIYKENERFQYKCNMGYEYSERGDAVCTESGWRPLPSCEEKSCDNPYIPNGDYSPLRIKHRTGDEITYQCRNGFYPATRGNTAKCTSTGWIPAPRCTLKPCDYPDIKHGGLYHENMRRPYFPVAVGKYYSYYCDEHFETPSGSYWDHIHCTQDGWSPAVPCLRKCYFPYLENGYNQNYGRKFVQGKSIDVACHPGYALPKAQTTVTCMENGWSPTPRCIRVSFTL |  | 1.5 |  |  |  |  |  |  |  |
| His-mCFHT.1 (pCTM459) (other, not shown: small tags and cut ends, Protective CFHT with one additional C-terminal SCR7 domain; also called purified recombinant mCFHT.1) EDCNELPPRRNTEILTGSWSDQTYPEGTQAIYKCRPGYRSLGNIIMVCRKGEWVALNPLRKCQKRPCGHPGDTPFGTFTLTGGNVFEYGVKAVYTCNEGYQLLGEINYRECDTDGWTNDIPICEVVKCLPVTAPENGKIVSSAMEPDREYHFGQAVRFVCNSGYKIEGDEEMHCSDDGFWSKEKPKCVEISCKSPDVINGSPISQKIIYKENERFQYKCNMGYEYSERGDAVCTESGWRPLPSCEEKSCDNPYIPNGDYSPLRIKHRTGDEITYQCRNGFYPATRGNTAKCTSTGWIPAPRCTLKPCDYPDIKHGGLYHENMRRPYFPVAVGKYYSYYCDEHFETPSGSYWDHIHCTQDGWSPAVPCLRKCYFPYLENGYNQNYGRKFVQGKSIDVACHPGYALPKAQTTVTCMENGWSPTPRCIRVRKCYFPYLENGYNQNYGRKFVQGKSIDVACHPGYALPKAQTTVTCMENGWSPTPRCIRVSFTL | 6.3 | 43 |  |  | 3.8 | 15.5 | 8 | 12.2 | 40.1 |
| His-dCFHT.0 (pCTM462) (other, Protective CFHT with the FHR-1 SCR1/2 homodimerization domain at the N-terminus ('dimer CFHT'); copies 2 follows that description, dimer state not measured; no residue range stated; also called purified recombinant dCFHT.0; not shown: 6x His-TEV tag (87 bp, 29 residues by transgene size: 1839 against 1752)) EATFCDFPKINHGILYDEEKYKPFSQVPTGEVFYYSCEYNFVSPSKSFWTRITCTEEGWSPTPKCLRLCFFPFVENGHSESSGQTHLEGDTVQIICNTGYRLQNNENNISCVERGWSTPPKCRSGGGGSGGGGSEDCNELPPRRNTEILTGSWSDQTYPEGTQAIYKCRPGYRSLGNIIMVCRKGEWVALNPLRKCQKRPCGHPGDTPFGTFTLTGGNVFEYGVKAVYTCNEGYQLLGEINYRECDTDGWTNDIPICEVVKCLPVTAPENGKIVSSAMEPDREYHFGQAVRFVCNSGYKIEGDEEMHCSDDGFWSKEKPKCVEISCKSPDVINGSPISQKIIYKENERFQYKCNMGYEYSERGDAVCTESGWRPLPSCEEKSCDNPYIPNGDYSPLRIKHRTGDEITYQCRNGFYPATRGNTAKCTSTGWIPAPRCTLKPCDYPDIKHGGLYHENMRRPYFPVAVGKYYSYYCDEHFETPSGSYWDHIHCTQDGWSPAVPCLRKCYFPYLENGYNQNYGRKFVQGKSIDVACHPGYALPKAQTTVTCMENGWSPTPRCIRVSFTL | 6.4 | 22 |  |  | 2.1 |  |  | 2.2 | 55.3 |

Now from value to binder:

| Fold Activity at Highest Dose (Relative to Control) [1] [fold] | Fold Activity at Highest Dose (Relative to Control) [2] [fold] | Fold Activity at Highest Dose (Relative to Control) [3] [fold] | Fold Activity at Highest Dose (Relative to Control) [4] [fold] | Fold Activity (Compared to CFHT-I62) [5] [fold] | IC50, decay acceleration activity (DAA) assay [6] [nM] | fold less active than unmodified CFHT, DAA assay [6] [fold] | Fold Activity (Compared to CFHT-I62) [7] [fold] | Fold Activity (Compared to CFHT-I62) [8] [fold] | Binder |
| --- | --- | --- | --- | --- | --- | --- | --- | --- | --- |
| 49 | 99 |  |  |  |  |  |  |  | His-mCFHT.2 (pCTM460) (other, Protective CFHT with two additional C-terminal SCR7 domains; no residue range stated; HEK293 supernatant; not shown: N-terminal 6x His-TEV tag (87 bp, 29 residues by transgene size: 1791 against 1704)) EDCNELPPRRNTEILTGSWSDQTYPEGTQAIYKCRPGYRSLGNIIMVCRKGEWVALNPLRKCQKRPCGHPGDTPFGTFTLTGGNVFEYGVKAVYTCNEGYQLLGEINYRECDTDGWTNDIPICEVVKCLPVTAPENGKIVSSAMEPDREYHFGQAVRFVCNSGYKIEGDEEMHCSDDGFWSKEKPKCVEISCKSPDVINGSPISQKIIYKENERFQYKCNMGYEYSERGDAVCTESGWRPLPSCEEKSCDNPYIPNGDYSPLRIKHRTGDEITYQCRNGFYPATRGNTAKCTSTGWIPAPRCTLKPCDYPDIKHGGLYHENMRRPYFPVAVGKYYSYYCDEHFETPSGSYWDHIHCTQDGWSPAVPCLRKCYFPYLENGYNQNYGRKFVQGKSIDVACHPGYALPKAQTTVTCMENGWSPTPRCIRVRKCYFPYLENGYNQNYGRKFVQGKSIDVACHPGYALPKAQTTVTCMENGWSPTPRCIRVRKCYFPYLENGYNQNYGRKFVQGKSIDVACHPGYALPKAQTTVTCMENGWSPTPRCIRVSFTL |
|  |  | 3.8 | 2.8 |  |  |  |  |  | rCFHT-I62 Protein (other, Purified recombinant protective CFHT (I62, Y402); also called purified recombinant CFHT-I62 protein; recombinant CFHT-I62) EDCNELPPRRNTEILTGSWSDQTYPEGTQAIYKCRPGYRSLGNIIMVCRKGEWVALNPLRKCQKRPCGHPGDTPFGTFTLTGGNVFEYGVKAVYTCNEGYQLLGEINYRECDTDGWTNDIPICEVVKCLPVTAPENGKIVSSAMEPDREYHFGQAVRFVCNSGYKIEGDEEMHCSDDGFWSKEKPKCVEISCKSPDVINGSPISQKIIYKENERFQYKCNMGYEYSERGDAVCTESGWRPLPSCEEKSCDNPYIPNGDYSPLRIKHRTGDEITYQCRNGFYPATRGNTAKCTSTGWIPAPRCTLKPCDYPDIKHGGLYHENMRRPYFPVAVGKYYSYYCDEHFETPSGSYWDHIHCTQDGWSPAVPCLRKCYFPYLENGYNQNYGRKFVQGKSIDVACHPGYALPKAQTTVTCMENGWSPTPRCIRVSFTL |
